Values of other authors, collected in PMC7468149.

Columns and labels:
VEGFR2 (Homo sapiens) = VEGFR2 (Homo sapiens) (UniProt P35968); experiment: SPR
VEGFR1 (Homo sapiens) = VEGFR1 (Homo sapiens) (UniProt P17948); experiment: SPR
UniProt P17948, sequence (P17948 27-1338): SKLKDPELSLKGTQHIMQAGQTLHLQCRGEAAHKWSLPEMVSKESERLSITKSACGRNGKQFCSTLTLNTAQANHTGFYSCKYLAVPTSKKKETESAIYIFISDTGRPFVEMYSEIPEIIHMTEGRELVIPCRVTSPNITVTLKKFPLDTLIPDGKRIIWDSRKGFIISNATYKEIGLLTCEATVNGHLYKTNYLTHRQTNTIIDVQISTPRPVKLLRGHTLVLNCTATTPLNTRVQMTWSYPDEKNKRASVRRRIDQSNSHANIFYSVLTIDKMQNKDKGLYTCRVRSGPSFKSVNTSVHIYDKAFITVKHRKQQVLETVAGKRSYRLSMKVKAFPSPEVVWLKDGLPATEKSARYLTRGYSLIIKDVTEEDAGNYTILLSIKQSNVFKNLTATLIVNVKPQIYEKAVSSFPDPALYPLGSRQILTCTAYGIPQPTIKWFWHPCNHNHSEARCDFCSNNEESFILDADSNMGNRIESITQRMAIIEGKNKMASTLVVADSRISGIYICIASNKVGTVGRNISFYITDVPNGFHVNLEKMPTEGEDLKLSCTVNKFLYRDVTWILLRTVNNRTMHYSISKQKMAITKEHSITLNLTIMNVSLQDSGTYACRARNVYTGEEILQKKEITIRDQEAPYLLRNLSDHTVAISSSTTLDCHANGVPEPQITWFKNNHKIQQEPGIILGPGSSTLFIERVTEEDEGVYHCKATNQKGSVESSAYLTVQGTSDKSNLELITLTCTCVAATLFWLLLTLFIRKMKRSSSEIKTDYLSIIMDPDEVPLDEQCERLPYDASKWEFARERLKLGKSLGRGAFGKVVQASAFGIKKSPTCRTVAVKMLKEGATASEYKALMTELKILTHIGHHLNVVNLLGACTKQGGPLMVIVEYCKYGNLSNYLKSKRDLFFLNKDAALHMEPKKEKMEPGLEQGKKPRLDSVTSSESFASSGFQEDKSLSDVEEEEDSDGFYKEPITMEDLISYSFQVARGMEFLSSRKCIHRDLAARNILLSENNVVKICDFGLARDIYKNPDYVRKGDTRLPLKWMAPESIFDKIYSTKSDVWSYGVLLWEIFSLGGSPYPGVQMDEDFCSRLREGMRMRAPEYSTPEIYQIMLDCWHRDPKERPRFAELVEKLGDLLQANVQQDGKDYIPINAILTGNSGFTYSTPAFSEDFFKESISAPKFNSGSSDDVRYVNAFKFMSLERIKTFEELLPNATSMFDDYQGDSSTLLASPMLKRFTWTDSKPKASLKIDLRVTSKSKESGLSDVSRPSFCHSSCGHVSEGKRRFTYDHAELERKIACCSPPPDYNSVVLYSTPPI

UniProt P35968, sequence (P35968 20-1356): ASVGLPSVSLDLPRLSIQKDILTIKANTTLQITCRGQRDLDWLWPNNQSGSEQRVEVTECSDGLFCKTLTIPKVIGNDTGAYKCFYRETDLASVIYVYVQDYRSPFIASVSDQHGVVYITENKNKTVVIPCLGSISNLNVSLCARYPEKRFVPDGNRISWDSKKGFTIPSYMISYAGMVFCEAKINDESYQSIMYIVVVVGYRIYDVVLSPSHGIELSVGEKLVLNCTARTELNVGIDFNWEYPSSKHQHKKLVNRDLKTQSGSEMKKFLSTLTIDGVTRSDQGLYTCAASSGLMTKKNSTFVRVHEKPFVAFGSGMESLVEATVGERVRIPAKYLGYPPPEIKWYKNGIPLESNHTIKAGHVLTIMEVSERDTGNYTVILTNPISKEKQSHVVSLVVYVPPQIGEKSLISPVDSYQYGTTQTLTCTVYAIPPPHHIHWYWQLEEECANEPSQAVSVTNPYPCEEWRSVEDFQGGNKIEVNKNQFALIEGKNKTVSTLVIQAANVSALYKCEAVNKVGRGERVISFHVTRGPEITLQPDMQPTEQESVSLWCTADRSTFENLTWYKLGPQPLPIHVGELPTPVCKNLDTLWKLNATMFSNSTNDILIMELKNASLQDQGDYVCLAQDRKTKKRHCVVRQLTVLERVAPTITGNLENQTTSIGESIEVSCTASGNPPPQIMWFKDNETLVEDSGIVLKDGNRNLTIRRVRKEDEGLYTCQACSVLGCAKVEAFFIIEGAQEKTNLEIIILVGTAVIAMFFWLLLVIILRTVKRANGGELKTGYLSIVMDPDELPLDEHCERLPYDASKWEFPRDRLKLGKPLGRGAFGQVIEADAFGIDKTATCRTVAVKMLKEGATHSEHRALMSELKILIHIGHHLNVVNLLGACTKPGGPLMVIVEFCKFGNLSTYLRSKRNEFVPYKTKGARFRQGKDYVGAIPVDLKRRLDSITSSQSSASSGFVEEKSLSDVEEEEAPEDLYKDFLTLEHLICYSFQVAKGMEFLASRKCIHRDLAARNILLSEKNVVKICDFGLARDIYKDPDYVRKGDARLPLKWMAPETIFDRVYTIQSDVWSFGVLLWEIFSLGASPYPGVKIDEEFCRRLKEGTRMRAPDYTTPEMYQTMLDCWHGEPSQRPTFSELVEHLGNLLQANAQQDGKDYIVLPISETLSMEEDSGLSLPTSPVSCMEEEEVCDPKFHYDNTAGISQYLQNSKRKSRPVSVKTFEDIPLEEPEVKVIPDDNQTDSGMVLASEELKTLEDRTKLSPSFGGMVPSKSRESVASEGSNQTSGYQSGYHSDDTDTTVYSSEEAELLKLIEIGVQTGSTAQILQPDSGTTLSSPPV

For VEGF-A165a (from UniProt P15692), the Kd (VEGFR2 (Homo sapiens)) is listed as 52 pM and the Kd (VEGFR1 (Homo sapiens)) is listed as 7.5 pM.
